Results: US20230058212A1 (UNIVERSIT DE BRETAGNE OCCIDENTALE UBO, published 2023)

Columns and labels:
[1] = target: T1, mouse STIM1 at the plasma membrane of mouse spleen B and T cells (mouse, UniProt P70302 23-685); experiment: direct flow cytometry with PE coupled B-M4 on spleen B and T cells, n=4
T1 construct: whole, on cells; also called mSTIM1 (mice B and T cells)

[2] = target: T2, Peptide 1B (biotinylated in the ELISA of Figure 3 A (site not given)); experiment: ELISA, DO492 - DO Blanc
T2 construct: also called STIM1 peptide 1B; aa 169 to aa 197
T2 sequence (peptide, as listed by the source): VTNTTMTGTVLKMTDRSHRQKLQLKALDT
Description: (§1) FIG. 3 illustrated the validation by Elisa of the monoclonal anti-STIM1 antibody clone B-M4. […] Anti-STIM1 mAb clone B-M4 mAb (10 μg/ml) was diluted to 1/10 and antigens STIM1 biotinylated peptides used at concentrations of 50 ng/well for peptides 1A and 1B and 100 ng/well for peptide 2A and 10 ng/well for peptide 2B. Panel B: Specificity of the B-M4 antibody for STIM1 is confirmed by ELISA using the peptide 2B and a recombinant STIM1 EF/SAM peptide (1 μg/mL). B-M4 mAb used at 100 μg/mL diluted to 1/10. Panel C: Specificity for the B-M4 antibody for the peptide 2B over the other peptides (1A, 1B, 2A, 2B, C2, C3, C4, C5, C6, C7 and C8). Peptides are used at a concentration of 1 μg/mL. Histograms represents mean optical density measured using an Elisa approach.

[3] = target: T3, Peptide 2A (biotinylated in the ELISA of Figure 3 A (site not given)); experiment: ELISA, DO492 - DO Blanc
T3 construct: also called STIM1 peptide 2A; aa 62 to aa 95
T3 sequence (peptide, as listed by the source): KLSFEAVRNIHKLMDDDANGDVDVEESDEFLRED
Description: as §1

[4] = target: T4, Peptide 1A (biotinylated in the ELISA of Figure 3 A (site not given)); experiment: ELISA, DO492 - DO Blanc and DO492 - DO630
T4 construct: also called STIM1 peptide 1A; aa 128 to aa 168
T4 sequence (peptide, as listed by the source): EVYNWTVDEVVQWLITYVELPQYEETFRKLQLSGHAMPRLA
Description: as §1

[5] = target: T5, recombinant STIM1 EF/SAM peptide (STIM1 aa 58-201) (human, UniProt Q13586 58-201); experiment: Octet, EF-SAM peptide at 300, 200 and 133 nM, 1 to 1 fitting model; column kdis, same value in all three rows [table]
T5 construct: also called soluble recombinant protein corresponding to the STIM1 EF-Hand domain
T5 sequence (Q13586 58-201): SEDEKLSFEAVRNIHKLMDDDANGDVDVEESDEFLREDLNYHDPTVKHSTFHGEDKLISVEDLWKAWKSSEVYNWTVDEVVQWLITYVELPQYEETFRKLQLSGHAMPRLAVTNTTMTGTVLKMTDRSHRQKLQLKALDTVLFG
Description: (§2) FIG. 9 represents the determination of the anti-STIM1 mAb clone B-M4 affinity. […] High affinity interaction is characterized by a low K, a fast recognizing (high kon) and a stable formation of complexes (low kdis). kdis: dissociation rate constant. kon: complex formation rate.
(§3) Affinity constants (Kon, Kdis) were calculated.

[6] = target: T5, recombinant STIM1 EF/SAM peptide (STIM1 …); experiment: Octet (BLI), 1 to 1 fitting model, EF-SAM peptide at 300, 200 and 133 nM
Description: as §3

[7] = target: T5, recombinant STIM1 EF/SAM peptide (STIM1 …); experiment: ELISA on recombinant STIM1 EF-SAM peptide (aa 58-201) at 1 µg/mL, B-M4 titrated
Description: as §1

[8] = target: T6, STIM1 peptide 2B (amino acids 97-127 of STIM1) (human, biotinylated in the ELISA of FIG. 3 panel A (position not given)); experiment: ELISA on Peptide 2B (aa 97-127), B-M4 titrated
T6 construct: One of the two immunization peptides
T6 sequence (peptide, as listed by the source): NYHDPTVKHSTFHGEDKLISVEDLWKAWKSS
Description: as §1

[9] = target: T5, recombinant STIM1 EF/SAM peptide (STIM1 …); experiment: Octet, EF-SAM peptide at 300, 200 and 133 nM, 1 to 1 fitting model; same value in all three rows [table]
Description: as §2, §3

T1 sequence (P70302 23-685): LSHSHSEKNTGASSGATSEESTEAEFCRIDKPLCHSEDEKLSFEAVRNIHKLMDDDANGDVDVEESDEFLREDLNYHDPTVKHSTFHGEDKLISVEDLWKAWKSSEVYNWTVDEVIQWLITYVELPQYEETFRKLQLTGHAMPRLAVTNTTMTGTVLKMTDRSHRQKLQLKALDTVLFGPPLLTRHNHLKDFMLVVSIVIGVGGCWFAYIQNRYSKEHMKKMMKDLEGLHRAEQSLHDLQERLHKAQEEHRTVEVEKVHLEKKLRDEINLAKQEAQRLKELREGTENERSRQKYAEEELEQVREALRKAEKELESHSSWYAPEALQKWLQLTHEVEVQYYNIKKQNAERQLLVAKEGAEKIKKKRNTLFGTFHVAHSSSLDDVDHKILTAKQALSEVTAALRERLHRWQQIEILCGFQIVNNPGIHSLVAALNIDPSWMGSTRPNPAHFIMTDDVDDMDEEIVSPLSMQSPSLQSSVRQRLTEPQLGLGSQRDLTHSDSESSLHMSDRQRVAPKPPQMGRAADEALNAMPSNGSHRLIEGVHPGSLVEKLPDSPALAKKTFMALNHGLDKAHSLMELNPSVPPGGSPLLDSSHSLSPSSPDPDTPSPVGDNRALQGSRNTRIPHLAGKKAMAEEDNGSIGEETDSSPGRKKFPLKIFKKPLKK

binding result [1]: binds
binding result [2]: no binding
binding result [3]: no binding
binding result [4]: no binding
koff [5]: 0.000369 s⁻¹
Kd [6]: 37 nM
EC50 (read off the curve) [7]: ~0.07 µg/mL
EC50 (read off the curve) [8]: ~0.02 µg/mL
kon [9]: 9960 M⁻¹ s⁻¹
B1: monoclonal anti-STIM1 antibody clone B-M4 (antibody, V domains shown)
VH: EVKLVESGGGLVQPGGSLKLSCAASGFTFSRYSMSWVRQTPEKRLEWVAHIRNGGGSTYYPDTVKGRFTISRDNAKNTLYLQMSSLKSEDTAMYYCARPPYGNYEGYFDVWGAGTTVTVSS
VL: DIVMSQSPSSLAVSAGEKVTMSCKSSQSLLNSRTRKNYLAWYQQKPGQSPKLLIYWASTRESGVPDRFTGSGSGTDFTLTISSVQAEDLAVYYCKQSYNLYTFGGGTKLEIK
notes: In the direct flow cytometry assays it was coupled to phycoerythrin (PE); also called B-M4 mAb; anti-STIM1 mAb clone B-M4
